Reference: patent publication US20220047684A1, “ENZYMES AND METHODS FOR PREVENTING AND TREATING […] IN ANIMALS” (Ecto Development Corporation, priority 2020, published 2022)

What was measured:
Assay type in all cases: biochemical
[1] = Biological permethrin assay for esterase activity (activity units of esterases); conditions: esterases used in reaction mix for scud assay
Experimental: A biological permethrin assay was performed for control, and three esterases pnbA, pytH2 and MsE1. The sensitivity of scuds (Hyalella Azteca) to permethrin was tested with three esterases pnbA, pytH2 and MsE1.
For control and each of the three esterases pnbA, pytH2 and MsE1, ten scuds were exposed to permethrin and one of pnbA, pytH2 or MsE1.
• 100 μL 50% MeOH in PBS • 0.2 μg/μL
• 37 degree C. • 18 hr • Shanking 1000 rpm Transferred 20 μL rxn mix [4 μg] to 100 mL [containing 10 scuds] At time, 24 h and 48 h the ten scuds were scored: A=Alive and Moving actively BA=Barely Alive—Difficulty swimming away; only legs are moving D=Dead—Not moving at all The results of which are shown in FIGS. 8 and 9.

[2] = pNPA method esterase (carboxylesterase) activity assay of spore productions; conditions: 30° C. for 30 minutes, absorbance at 400
Experimental: Each of the identified enzymes were evaluated for esterase activity assay using pNBA method described below. Determination of carboxylesterase activity of cargo enzyme in Bacillus thuringiensis spore productions or of free enzyme productions. Three active carboxylesterases cloned into pBCm (Bt EO) and pET28a (E. coli BL21) systems: pnbA (B. subtilis), PytH2 (Sphingobium wenxiniae strain), and MsE1 (Methylobacterium sp). p-Nitrophenyl acetate was the substrate in assays for esterase activity. The hydrolysis of p-nitrophenyl acetate releases p-nitrophenol and acetate, and while p-nitrophenyl acetate is colorless, p-nitrophenol is yellow.
6 mg p-Nitrophenyl acetate (pNPA, CAS #830-03-5, MW: 181.1 g/mol) was weighed and dissolved in 1 mL methanol (CAS #67-56-1, MW: 32.04 g/mol). Stored at −20° C. and kept on ice when preparing reactions.
8.0 g sodium chloride (NaCl, CAS #7647-14-5, MW: 58.44 g/mol), 1.44 g sodium phosphate dibasic was dissolved (Na2HPO4, CAS #7558-79-4, MW: 141.96 g/mol), and 0.24 g potassium phosphate monobasic (KH2PO4, CAS #7778-77-0, 136.09 g/mol) in 800 mL DI H20, then adjust pH to 7.4 using hydrochloric acid (HCl, CAS #7647-01-0, MW: 36.46 g/mol). Make 100 mL aliquots and autoclave.
Esterase from rabbit liver (CAS #9016-18-6, Sigma E0887-powder). Store at −20° C. To prepare a stock dissolve 1 mg in 1 mL PBS, kept on ice when using.
Up to 1 mL spore production was pelleted up for 5 min at max speed. Supernatant was discarded without disturbing spore pellet and suspend pellet in ice-cold PBS. Spores kept suspended on ice until use.
The assay was run at 30° C. for 30 minutes. The assay was shaken continuously. Activity was read on (A) 400 BioTek Synergy/HTX microplate reader was used. The results of pNPA hydrolysis are shown in Table 3 depicting carboxylesterase enzyme activity for each of the five strains using pNPA hydrolysis.

[3] = Deltamethrin degradation, HPLC; conditions: method as for permethrin; FIG. 5
From the text: Using the method and instruments described above for permethrin, 40% of deltamethrin was degraded by pPytH2, PytH2 esterase as shown in FIG. 5.

B1: E3: carboxylesterase PytH2 (pytH) from Sphingobium wenxiniae, amino acid SEQ. ID No. 3, DNA SEQ. ID No. 6; recombinant, His-tagged (protein, listed as Sphingobium wenxiniae)
chain: MTVTDIILIHGALNRGACYDAVVPLLEARGYRVHAPDLTGHTPGDGGHLSVVDMEHYTRPVADILARAEGQSILLGHSLGGASISWLAQHHYDKVAGLIYLTAVLTAPGITPETFVLPGEPNRGTPHALDLIQPVDEGRGLQADFSRLERLREVFMGDYPGEGMPPAEQFIQTQSTVPFGTPNPMEGRALEIPRLYEALDDVVIPIAVQRQMQKEFPGPVAVVSLPASHAPYYSMPERLAEAIADFADAPAEYRQTATKAGPDRPAGADGGRADRADLP
modifications: His tag
notes: ID No. 6; recombinant, His-tagged
Activity units [1]: 31.6
pNPA hydrolysis [2]: 26.3 ± 0.9 nmol pNPA/min/1E+8 spores
deltamethrin degraded [3]: 40%
